Results as given in publication PMC3303126 (Nature structural & molecular biology, 2012).

Experiments:
[1] = biological target: T1, His-Thp1 (full-length Thp1, coexpressed with Sem1) (S. cerevisiae, UniProt Q08231 1-455); assay: pull-down
T1 sequence: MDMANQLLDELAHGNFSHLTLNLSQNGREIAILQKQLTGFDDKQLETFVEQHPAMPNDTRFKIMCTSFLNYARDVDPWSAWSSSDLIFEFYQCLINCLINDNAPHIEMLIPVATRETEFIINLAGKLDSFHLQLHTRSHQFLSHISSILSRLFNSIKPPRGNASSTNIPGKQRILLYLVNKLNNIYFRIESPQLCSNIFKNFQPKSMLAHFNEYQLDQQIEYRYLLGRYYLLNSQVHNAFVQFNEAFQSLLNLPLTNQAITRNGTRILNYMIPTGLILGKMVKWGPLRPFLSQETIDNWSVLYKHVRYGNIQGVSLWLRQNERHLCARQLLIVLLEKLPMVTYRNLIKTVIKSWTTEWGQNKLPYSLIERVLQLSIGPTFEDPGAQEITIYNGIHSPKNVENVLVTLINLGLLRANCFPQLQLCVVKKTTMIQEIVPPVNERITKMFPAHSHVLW

[2] = biological target: T1, His-Thp1 (full-length Thp1, coexpressed …); assay: crystal structure
[3] = biological target: T2, Sac3-M (Sac3 250-563);Thp1;Sem1 (Saccharomyces cerevisiae;Saccharomyces …, UniProt P46674;Q08231;O94742 250-563;1-455;1-89, ||); assay: EMSA
T2 sequence 1: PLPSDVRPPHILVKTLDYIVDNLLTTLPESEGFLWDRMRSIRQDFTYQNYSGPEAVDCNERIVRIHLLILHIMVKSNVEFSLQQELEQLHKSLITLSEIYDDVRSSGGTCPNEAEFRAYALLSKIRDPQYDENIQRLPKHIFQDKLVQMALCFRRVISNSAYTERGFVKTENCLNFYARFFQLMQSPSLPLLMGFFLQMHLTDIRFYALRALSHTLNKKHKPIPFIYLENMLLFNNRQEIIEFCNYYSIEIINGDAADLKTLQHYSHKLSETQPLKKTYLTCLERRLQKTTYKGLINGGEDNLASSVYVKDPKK
T2 sequence 2: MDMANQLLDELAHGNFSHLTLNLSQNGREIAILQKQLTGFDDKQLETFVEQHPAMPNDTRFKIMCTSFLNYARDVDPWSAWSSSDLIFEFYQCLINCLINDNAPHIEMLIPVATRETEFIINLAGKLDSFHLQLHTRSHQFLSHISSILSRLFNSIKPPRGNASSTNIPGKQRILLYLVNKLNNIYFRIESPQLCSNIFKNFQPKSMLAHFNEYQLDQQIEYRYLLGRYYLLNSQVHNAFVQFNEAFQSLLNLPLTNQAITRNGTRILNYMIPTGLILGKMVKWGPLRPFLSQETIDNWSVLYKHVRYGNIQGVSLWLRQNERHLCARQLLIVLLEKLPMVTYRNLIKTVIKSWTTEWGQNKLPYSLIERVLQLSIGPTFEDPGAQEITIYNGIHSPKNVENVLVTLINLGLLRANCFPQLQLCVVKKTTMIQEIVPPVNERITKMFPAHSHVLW
T2 sequence 3: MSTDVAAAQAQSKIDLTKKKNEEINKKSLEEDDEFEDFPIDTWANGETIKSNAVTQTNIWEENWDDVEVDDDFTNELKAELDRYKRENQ

[4] = biological target: T3, ProtA-Sac3 250-563;Thp1;Sem1 (Saccharomyces cerevisiae;Saccharomyces …, UniProt P46674;Q08231;O94742 250-563;1-455;1-89, ||); assay: EMSA
T3 sequence 1: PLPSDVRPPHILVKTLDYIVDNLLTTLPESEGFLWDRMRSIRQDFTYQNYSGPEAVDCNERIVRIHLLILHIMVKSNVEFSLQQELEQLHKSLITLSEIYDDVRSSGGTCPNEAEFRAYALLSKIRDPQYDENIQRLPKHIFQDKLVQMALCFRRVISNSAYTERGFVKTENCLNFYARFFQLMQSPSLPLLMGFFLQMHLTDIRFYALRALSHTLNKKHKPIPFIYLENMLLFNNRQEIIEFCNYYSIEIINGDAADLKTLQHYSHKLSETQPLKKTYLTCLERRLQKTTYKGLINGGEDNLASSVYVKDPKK
T3 sequence 2: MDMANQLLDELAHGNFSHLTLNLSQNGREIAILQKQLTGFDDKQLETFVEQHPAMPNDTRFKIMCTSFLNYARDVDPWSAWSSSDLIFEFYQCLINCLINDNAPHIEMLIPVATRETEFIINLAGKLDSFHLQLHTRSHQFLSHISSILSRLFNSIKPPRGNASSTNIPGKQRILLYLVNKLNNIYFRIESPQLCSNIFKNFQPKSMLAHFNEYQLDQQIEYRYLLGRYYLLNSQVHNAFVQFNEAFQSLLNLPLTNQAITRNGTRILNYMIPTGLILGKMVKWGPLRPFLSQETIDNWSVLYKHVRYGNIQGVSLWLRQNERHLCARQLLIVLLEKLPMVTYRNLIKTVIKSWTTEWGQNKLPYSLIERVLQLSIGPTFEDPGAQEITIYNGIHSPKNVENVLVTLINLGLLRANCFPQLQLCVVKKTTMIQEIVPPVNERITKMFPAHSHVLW
T3 sequence 3: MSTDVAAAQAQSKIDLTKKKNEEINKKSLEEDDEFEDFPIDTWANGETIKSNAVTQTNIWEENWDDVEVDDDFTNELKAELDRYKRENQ

[5] = biological target: T2, Sac3-M (Sac3 250-563);Thp1;Sem1; assay: EMSA; remark: listed apart in the source

B1: Sem1 (full length, bacterially expressed) (natural protein)
chain: MSTDVAAAQAQSKIDLTKKKNEEINKKSLEEDDEFEDFPIDTWANGETIKSNAVTQTNIWEENWDDVEVDDDFTNELKAELDRYKRENQ
Question: Does B1 bind [1]?
Answer: binds

B2: Sac3 residues 250-563 (Sac3-M), as crystallised (domain or fragment)
chain: PLPSDVRPPHILVKTLDYIVDNLLTTLPESEGFLWDRMRSIRQDFTYQNYSGPEAVDCNERIVRIHLLILHIMVKSNVEFSLQQELEQLHKSLITLSEIYDDVRSSGGTCPNEAEFRAYALLSKIRDPQYDENIQRLPKHIFQDKLVQMALCFRRVISNSAYTERGFVKTENCLNFYARFFQLMQSPSLPLLMGFFLQMHLTDIRFYALRALSHTLNKKHKPIPFIYLENMLLFNNRQEIIEFCNYYSIEIINGDAADLKTLQHYSHKLSETQPLKKTYLTCLERRLQKTTYKGLINGGEDNLASSVYVKDPKK
Question: Does B2 bind [2]?
Answer: binds

Question: With UUUUUUUUUUUUUUUUUUUUUUUUU (ssRNA) [polyU25 RNA] as the binder, how does the Kd [3] read?
Answer: 175 nM

Question: Which results are given for AAAAAAAAAAAAAAAAAAAAAAAAA (ssRNA) [polyA25 RNA]?
Answer: binding result [4]: binds; binding result [5]: binds
